Reference: patent publication US20260069726A1, “ZWITTERIONIC COMPOUNDS AND USES THEREOF” (priority 2022, published 2026)

How the values were obtained:
[1] = format: physicochemical; conditions: pH 7.4
Experimental: The lipophilicity of each one of the [^68Ga]Ga-DOTA-TATEs were assessed as described in the literature. In brief, two phases of 1-octanol and phosphate buffer (PBS) at a pH of 7.4 were presaturated with each other. The presaturated 1-octanol (3.0 mL) was added to 3.0 mL of presaturated PBS that had about 0.3 MBq of labelled [^68Ga]Ga-DOTA-TATEs. The mixture was vortexed for 1.0 minute at room temperature then centrifuged for 1.0 minute at 3000 RPM. 1.0 mL of each phase was taken and measured its activity in automated gamma counter. Log D7.4 was determined for at least three experiments using Equation 1 below, where CPM (count per minute) is the reading from the gamma counter.

[2] = format: in vitro ADME, mouse
Experimental: (§1) Serum stability was determined using a previously published method. Aliquots of each one of the [^68Ga]Ga-DOTA-TATEs (5.0 MBq) were added to 0.4 mL human or mice serum and incubated at 37° C. Aliquots (20 μL) were taken at various time intervals (10, 30, 60, 90, 120 minutes) and quenched in ice-cold acetonitrile. The samples were centrifuged, and the supernatants were diluted further with deionized water and were analyzed by radio-HPLC (a flow rate 0.65 mL/min with a gradient of CH3CN:H2O with 0.1% TFA in both). 5.0 MBq of [^68Ga]Ga-DOTA-TATEs were prepared in 0.4 mL of PBS and used as a reference in the radio-HPLC measurement for the stability in serum study.

[3] = format: in vitro ADME, human
Experimental: as §1

[4] = format: in vitro ADME; conditions: plasma
Experimental: Serum binding assay for each one of [^68Ga]Ga-DOTA-TATEs were carried out as described in the literature. Compendiously, labelled [^68Ga]Ga-DOTA-TATEs (4-3 MBq) were added to freshly prepared 0.1 mL of anticoagulated human or mice plasma and the mixtures were incubated for 120 minutes at 37° C. This was followed by addition of 1.0 mL ice-cold acetonitrile and centrifuged for 2 minutes at 3000 RPM. The addition of acetonitrile had been repeated two times and all supernatants (denoted as A) were combined and the total radioactivity was measured using automated gamma counter. The radioactivity of the precipitate (B) was measured as well. The plasma-protein binding rate was calculated using Equation 2 below (n=3).

[5] = design: species or system healthy CD1 mice; conditions: mouse, in vivo
Experimental: Experiments were performed in healthy female mice (CD1) to determine the behavior and distribution of these compounds (pharmacokinetics). Mice were catheterized via tail vein and injected while in the scanner, and dynamic PET-CT imaging was performed from time 0 until 1.5 hours post injection (n=4 each group, 4 mice in the scanner simultaneously).

[6] = design: species or system healthy CD1 mice; conditions: mouse, in vivo; remark: listed apart in the source
Experimental: After imaging was complete, the mice were kept awake for an additional 30 minutes before being euthanized, bringing the total period of the injection to 2 hours. Biodistribution was performed by removing and weighing individual tissues and organs, and then measuring the activity of [^68Ga]Ga^3+ inside each sample using an automated gamma counter.

[7] = test system: AR42J (SSTR2 over-expressing) subcutaneous tumors; assay: Dynamic PET/CT imaging (0-90 minutes) in tumor-bearing mice; conditions: male NSG mice bearing AR42J tumors
Experimental: (§2) The experimental protocol was approved by the University of Saskatchewan Committee on Animal Care and procedures were performed in accordance with the guidelines of the Canadian Council on Animal Care and the Canadian Nuclear Safety Commission. Aliquots of about 200 μL of each one of [^68Ga]Ga-DOTA-TATEs (7-5 MBq with <10% EtOH) were loaded to 0.5 mL syringes and >96% Radiochemical yields (RCY) were confirmed by using radio-HPLC followed by injection to healthy CD1 female mice and xenograft bearing male NOD-SCID gamma mice (USASK colony F1 005557, strain NOD.Cg-PrkdcscidIl2rg) (n=4), via tail vein catheter while in the PET scanner with image acquisition started, under anesthesia (2.5% isoflurane in O2, at a flow rate of 2 mL/min). 90-minute dynamic images of all four mice were collected simultaneously on the Sofie GNEXT PET/CT small animal imaging system using the included 4-mouse heated bed. The mice were euthanized (by cervical dislocation while they were under the effect of anesthesia) at 2 hrs post injection and blood and specific organs were harvested, weighed, and residual activity in the organs were measured by using an automated gamma counter. All images were reconstructed using VivoQuant® 2020 software (patch 1 64 bit, build vq-2020patch1-0-ga8255affc).

[8] = Ex vivo biodistribution in xenograft mice two hours post injection; conditions: male, NOD-SCID gamma (NSG), mouse, in vivo, iv, total radioactivity
Experimental: as §2
(§3) As done for healthy mouse studies, animals were awakened for 30 minutes following PET/CT and then euthanized at 2 hours post injection. Tissue/organ samples were collected, weighed, and the amount of activity present in the samples was measured using an automated gamma counter.

[9] = test system: AR42J (SSTR2 over-expressing) subcutaneous tumors; assay: as above; conditions: for tumor uptake, biodistribution / tumor-to-kidney ratio: male AR42J tumor bearing mice; for tumor uptake, biodistribution / tumor-to-kidney ratio / tumor uptake compared with the other compounds: 2 hours post injection; for tumor uptake compared with the other compounds: AR42J tumor bearing mice; for pharmacokinetic of healthy-tissue clearance (words, figure legend) / tumor-tissue ratios (words, figure legend): mouse, in vivo
Experimental: as §2, §3

| SMILES | logD [1] | MSS % (2 hrs.) = Mouse Serum Stability [2] | HSS % (2 hrs.) = Human Serum Stability [3] | fraction unbound [4] | start of excretion / renal elimination into the bladder [5] | renal uptake, biodistribution [6] | kidney accumulation, retention and clearance seen in dynamic PET/CT [7] | tissue uptake at 2 h [8] | tumor uptake, biodistribution [9] | tumor-to-kidney ratio [9] | fraction unbound at 120 min [4] | tumor uptake compared with the other compounds ([9]; listed as Lys(ZW) derivative) | tumor uptake compared with the other compounds ([9]; listed as [^68Ga]Ga-DOTA-Lys(ZW)-PEG4-TATE) | pharmacokinetic of healthy-tissue clearance (words, figure legend) [9] | tumor-tissue ratios (words, figure legend) [9] | tumor uptake compared with the other compounds [9] |
| --- | --- | --- | --- | --- | --- | --- | --- | --- | --- | --- | --- | --- | --- | --- | --- | --- |
| C[C@@H](O)[C@H](NC(=O)[C@@H]1CSSC[C@H](NC(=O)[C@@H](Cc2ccccc2)NC(=O)CN2CCN(CC(=O)O)CCN(CC(=O)O)CCN(CC(=O)O)CC2)C(=O)N[C@@H](Cc2ccc(O)cc2)C(=O)N[C@H](Cc2c[nH]c3ccccc23)C(=O)N[C@@H](CCCCN)C(=O)N[C@@H]([C@@H](C)O)C(=O)N1)C(=O)O [DOTA-TATE, DOTA-Tyr^3-octreotate, reference compound] | -2.81 | 100% | 100% | 0.567 | ~70 minutes post injection | ~74±51 D/g % | rapid accumulation and protracted retention | 38.8 ± 42.7 %ID/g | 13.8±4.6 % ID/g | 0.35 |  |  |  |  |  |  |
| C[C@@H](O)[C@H](NC(=O)[C@@H]1CSSC[C@H](NC(=O)[C@@H](Cc2ccccc2)NC(=O)CCOCCOCCOCCOCCNC(=O)[C@H](CCCC[N+](C)(C)CCCS(=O)(=O)[O-])NC(=O)CN2CCN(CC(=O)O)CCN(CC(=O)O)CCN(CC(=O)O)CC2)C(=O)N[C@@H](Cc2ccc(O)cc2)C(=O)N[C@H](Cc2c[nH]c3ccccc23)C(=O)N[C@@H](CCCCN)C(=O)N[C@@H]([C@@H](C)O)C(=O)N1)C(=O)O [DOTA-(ZW1)-PEG4-TATE] | -3.39 ± 0.19 | 100% | 100% |  |  |  |  | 32.9 ± 19.8 %ID/g | 20.6±2.5 % ID/g | 0.63 | 0.534 | greater tumor uptake | highest | faster | improved |  |
| C[C@@H](O)[C@H](NC(=O)[C@@H]1CSSC[C@H](NC(=O)[C@@H](Cc2ccccc2)NC(=O)CCOCCOCCOCCOCCNC(=O)[C@@H](Cc2ccc[n+](CCCS(=O)(=O)[O-])c2)NC(=O)CN2CCN(CC(=O)O)CCN(CC(=O)O)CCN(CC(=O)O)CC2)C(=O)N[C@@H](Cc2ccc(O)cc2)C(=O)N[C@H](Cc2c[nH]c3ccccc23)C(=O)N[C@@H](CCCCN)C(=O)N[C@@H]([C@@H](C)O)C(=O)N1)C(=O)O [DOTA-Pyr(ZW)-PEG4-TATE] | -3.57 | 99.6 ± 0.1% | 100% |  |  |  |  |  |  |  | 0.575 |  |  |  |  |  |
| C[C@@H](O)[C@H](NC(=O)[C@@H]1CSSC[C@H](NC(=O)[C@@H](Cc2ccccc2)NC(=O)CCOCCOCCOCCOCCNC(=O)[C@H](CCCC[N+](C)(C)CCCS(=O)(=O)[O-])NC(=O)[C@H](CCCC[N+](C)(C)CCCS(=O)(=O)[O-])NC(=O)CN2CCN(CC(=O)O)CCN(CC(=O)O)CCN(CC(=O)O)CC2)C(=O)N[C@@H](Cc2ccc(O)cc2)C(=O)N[C@H](Cc2c[nH]c3ccccc23)C(=O)N[C@@H](CCCCN)C(=O)N[C@@H]([C@@H](C)O)C(=O)N1)C(=O)O [DOTA-(ZW2)-PEG4-TATE] | -3.36 ± 0.18 | 100% | 100% |  |  |  |  |  |  |  | 0.515 |  |  | faster | improved | reduced tumor uptake |
